Data on 2 substances can be found in PMC4416878.

The target in assay [1] is Golgi anti-apoptotic protein (GAAP) from camelpox virus, wild type, purified (camelpox virus (CMLV)). The assay can be described thus: SEC. On the technique in general: In gel filtration, larger molecules generally elute earlier.
Assay [2] concerns the target Golgi anti-apoptotic protein (GAAP) from vaccinia virus strain Evans, purified (vaccinia virus (VACV) strain Evans). The assay can be described thus: SEC.

Consider “Golgi anti-apoptotic protein (GAAP) from camelpox virus, wild type, purified (natural protein)”, for which, in assay [1], the percent of protein oligomeric was determined as 84% and the percent of total protein in oligomeric states (% of total protein) worked out at 87.
Take “Golgi anti-apoptotic protein (GAAP) from vaccinia virus strain Evans, purified (natural protein)”: the percent of total protein in oligomeric states (% of total protein) in assay [2] came to 64.
